Results from article PMC7859239.

Experiments:
[1] = molecular target: Schizosaccharomyces pombe RNA polymerase I (Schizosaccharomyces pombe (endogenous in S. pombe)) (UniProt P15398); assay: negative-stain EM with 2D classification; peak fraction of the analytical SEC in low-salt buffer S300 (300 mM KAc); uranyl formate; 24,462 particles classified into 16 classes
[2] = molecular target: Schizosaccharomyces pombe RNA polymerase I (Schizosaccharomyces pombe (endogenous in S. pombe)) (UniProt P15398); assay: negative-stain EM with 2D classification; peak fraction of the analytical SEC in high-salt buffer S1500 (1.5 M KAc); uranyl formate; 20,054 particles classified into 16 classes
[3] = molecular target: Schizosaccharomyces pombe RNA polymerase I (Schizosaccharomyces pombe (endogenous in S. pombe)) (UniProt P15398); assay: cryo-EM structure; dimer particles in the 'monomer' dataset of BS3-crosslinked Sp Pol I after SEC (5 mM HEPES pH 7.8, 1 mM MgCl2, 10 µM ZnCl2, 150 mM KCl, 5 mM DTT); C2 symmetry imposed; 4.5 Å; model by placing two monomers and rigid body fitting of subdomains

percent of particles in a dimeric state [1]: < 2%
percent of Pol I molecules in a dimeric state [2]: 49%
percent of identified particles in a dimeric state [2]: 32%
stoichiometry N [3]: 2
Substance: Schizosaccharomyces pombe RNA polymerase I, P15398 1-1689; Q9P7X8 1-1174; O94616 1-348; Q09177 1-125; O43036 1-173; Q9P7P1 1-147; O94703 1-119; Q09191 1-210; P36595 1-142; Q92399 1-125; O13877 1-71; P48011 1-63; O14086 1-425; Q9USZ4 1-251
